US20230322924A1 (Janssen / Centocor, published 2023)
Read-outs that look alike come from different tables or passages of the source.

Legend:
[1] = molecular target: T1, human PSMA on cells (LNCaP) (human, UniProt Q04609 1-750); experiment: flow cytometry, mammalian Fab supernatant on LNCaP cells, anti-human kappa-RPE
T1 construct: whole, on cells; also called LNCaP cells
Procedure: (§1) Individual Fab clones were isolated from the round 3 output of all panning experiments following pIX excision. Fab clones were tested for binding to chimp and cyno PSMA expressing HEK cells, as well as to human PSMA on LNCaP cells. Briefly, PSMA expressing cells were aliquoted into a V-bottom plate (CoStar 3357) at a density of 200,000 per well and incubated with (100 μl) supernatants expressing Fab fragments for 1 hour on ice. Cells were washed twice with PBS containing 2% FBS, and stained with a mouse anti-human kappa-RPE antibody (Life Technologies cat #MH10514) for 1 hour on ice. Cells were washed twice with PBS containing 2% FBS and resuspended in […] of the same wash buffer. Plates were read on a BD FACS Array flow cytometer. FACS data was analyzed in FlowJo software by live gating the healthy population of cells using forward scatter and side scatter, and then analyzing the cells within this gate for PE staining. Mean fluorescence intensity (MFI) was calculated and exported into Microsoft Excel. […] Fabs were sequenced and moved forward for cloning into mammalian expression vector for rescreening. True positives were selected from the binding of mammalian cell expressed Fab supernatants to PSMA-expressing cell lines.
FIGS. 22A, 22B, 22C and 22D show the titration curves for anti-PSMA panning hits vs. LNCaP cells. […] Binding profiles among hits were compared across cell lines expressing different species of PSMA.

[2] = molecular target: T2, chimpanzee PSMA on HEK cells (chimpanzee, UniProt H2Q3K5 1-750); experiment: flow cytometry, mammalian Fab supernatant on chimp-PSMA HEK cells (PSMG9), anti-human kappa-RPE
T2 construct: also called chimp-PSMA HEK; PSMG9
T2 sequence (H2Q3K5 entry or part of it limits assumed): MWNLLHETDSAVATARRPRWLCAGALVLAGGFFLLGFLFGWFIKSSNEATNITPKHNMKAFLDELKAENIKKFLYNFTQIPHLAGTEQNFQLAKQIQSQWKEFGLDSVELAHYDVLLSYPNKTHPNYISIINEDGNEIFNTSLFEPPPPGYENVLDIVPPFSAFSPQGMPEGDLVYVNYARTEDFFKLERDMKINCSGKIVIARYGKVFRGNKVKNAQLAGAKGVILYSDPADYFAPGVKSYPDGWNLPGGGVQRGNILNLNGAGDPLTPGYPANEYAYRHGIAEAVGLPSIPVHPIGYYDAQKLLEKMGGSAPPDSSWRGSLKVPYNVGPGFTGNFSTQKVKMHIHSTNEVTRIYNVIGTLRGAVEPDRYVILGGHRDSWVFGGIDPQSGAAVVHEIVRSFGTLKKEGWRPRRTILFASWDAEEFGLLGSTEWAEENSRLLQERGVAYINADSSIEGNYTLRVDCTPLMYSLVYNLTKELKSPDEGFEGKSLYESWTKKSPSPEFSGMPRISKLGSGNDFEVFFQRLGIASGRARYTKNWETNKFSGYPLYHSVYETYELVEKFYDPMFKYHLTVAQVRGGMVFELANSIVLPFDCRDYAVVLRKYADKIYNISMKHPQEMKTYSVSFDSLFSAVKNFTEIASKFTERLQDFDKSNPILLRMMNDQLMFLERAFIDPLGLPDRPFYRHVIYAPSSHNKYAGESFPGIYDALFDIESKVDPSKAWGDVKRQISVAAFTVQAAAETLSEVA
Procedure: as §1
(§2) FIGS. 22A, 22B, 22C and 22D show the titration curves for anti-PSMA panning hits vs. LNCaP cells. […]

[3] = molecular target: human IL1RAP on NCI-H1975 cells (human); experiment: cell-based or functional assay
[4] = molecular target: T3, human IL1RAP (interleukin-1 receptor accessory protein) on LAMA-84 cells (human); experiment: cell-based or functional assay
[5] = molecular target: T3, human IL1RAP (interleukin-1 receptor …); experiment: cell-based or functional assay; remark: listed apart in the source
Cyno CD3e = Cyno CD3e (cynomolgus monkey, UniProt Q95LI5 22-198); experiment: cell-based or functional assay
Sequence of Cyno CD3e (Q95LI5 22-198): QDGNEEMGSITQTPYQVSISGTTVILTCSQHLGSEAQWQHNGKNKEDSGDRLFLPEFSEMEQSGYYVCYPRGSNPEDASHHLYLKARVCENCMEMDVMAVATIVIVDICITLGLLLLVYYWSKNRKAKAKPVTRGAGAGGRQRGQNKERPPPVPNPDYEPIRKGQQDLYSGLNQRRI

Cyno CD33 full length = Cyno CD33 full length (cynomolgus monkey); experiment: cell-based or functional assay
Human CD33 full length [6] = molecular target: T4, Human CD33 full length (human, UniProt P20138 18-364); experiment: cell-based or functional assay
T4 sequence (P20138 18-364 limits assumed): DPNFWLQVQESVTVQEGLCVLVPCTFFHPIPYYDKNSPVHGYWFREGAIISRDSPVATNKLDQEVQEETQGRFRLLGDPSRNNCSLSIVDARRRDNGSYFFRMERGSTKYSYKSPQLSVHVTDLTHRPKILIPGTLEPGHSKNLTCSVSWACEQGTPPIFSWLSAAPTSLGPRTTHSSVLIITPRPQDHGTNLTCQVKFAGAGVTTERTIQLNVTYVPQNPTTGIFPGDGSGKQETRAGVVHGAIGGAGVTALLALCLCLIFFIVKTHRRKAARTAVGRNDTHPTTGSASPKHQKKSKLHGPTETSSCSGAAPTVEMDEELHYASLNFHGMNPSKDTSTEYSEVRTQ

Human CD33 full length [7] = molecular target: T4, Human CD33 full length; experiment: cell-based or functional assay; remark: listed apart in the source
Rh-integrin a4b7 = molecular target: T5, Rh-integrin a4b7 (UniProt P13612 34-977; P26010 20-723, limits assumed); experiment: Biacore 8K SPR, antibody over immobilised protein
T5 construct: rh read as recombinant human
Procedure: (§3) Non-specific binding of the lead molecule to unrelated surfaces is determined by biosensor technology (Biacore 8K). Antibody is passed over SPR surfaces coated with unrelated proteins. […] Irrelevant surfaces include negatively charged protein (Soy Trypsin Inhibitor), positively charged protein (Lysozyme and β-defensin), hydrophobic (Rh-integrin a4b7), human IgG, sticky protein (Rh-CD19). Proper controls are used in this experiment. Lead is flown over two surfaces, one is a blank and the other has a molecule directly immobilized. The response unit (RU) level is determined by subtracting the blank RU from the test surface RU. […] A response unit ≥100 predicts high risks for non-specific binding to charged/hydrophobic/IgG surfaces which would create challenges during manufacturing and translate to poor PK properties.

Rh-CD19 = molecular target: T6, Rh-CD19 (UniProt P15391 20-291, limits assumed); experiment: Biacore 8K SPR, antibody over immobilised protein
T6 construct: rh read as recombinant human
T6 sequence (looked up): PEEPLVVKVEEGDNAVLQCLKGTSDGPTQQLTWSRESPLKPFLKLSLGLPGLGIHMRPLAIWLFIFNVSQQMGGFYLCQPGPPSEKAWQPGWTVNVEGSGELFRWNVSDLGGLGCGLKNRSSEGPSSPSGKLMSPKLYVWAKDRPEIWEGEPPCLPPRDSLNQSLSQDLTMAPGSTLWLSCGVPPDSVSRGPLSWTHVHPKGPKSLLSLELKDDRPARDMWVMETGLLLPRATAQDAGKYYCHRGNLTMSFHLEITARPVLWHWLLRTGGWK
Procedure: as §3

[8] = molecular target: T2, chimpanzee PSMA on HEK cells; experiment: flow cytometry, mammalian Fab supernatant on chimp-PSMA HEK cells (PSMG9), anti-human kappa-RPE; remark: listed apart in the source
Procedure: as §1, §2

T1 sequence (Q04609 whole entry): as the sequence (H2Q3K5 entry or part of it limits assumed) above, with L155S, H281R, Y475H, N613S, T647S, L660V, D727E, S733Y counted along it

B1: PSMM18 (Fab, V domains shown)
VH: EVQLVQSGAEVKKPGESLKISCKGSGYSFTSYWIGWVRQMPGKGLEWMGIIYPGDSDTRYSPSFQGQVTISADKSISTAYLQWSSLKASDTAMYYCARAYHYSKGLDYWGQGTLVTVSS
VL: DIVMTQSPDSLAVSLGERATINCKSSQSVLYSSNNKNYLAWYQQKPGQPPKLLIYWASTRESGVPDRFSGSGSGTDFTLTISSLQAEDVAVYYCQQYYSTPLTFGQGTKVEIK
notes: Mammalian Fab supernatant; also called PSMB18
- binding result [1]: binds
- EC50 (read off the curve) [2]: ~0.3 µg/mL

B2: IC3B19 (bispecific antibody, human IgG4 S228P, kappa, F234A L235A)
heavy: not shown
light: DIQLTQSPSFLSASVGDRVTITCRASQGISSYLAWYQQKPGKAPKLLIYAASTLQSGVPSRFSGSGSGTEFTLTISSLQPEDFATYYCQQVNSYPLTFGGGTKVEIKRTVAAPSVFIFPPSDEQLKSGTASVVCLLNNFYPREAKVQWKVDNALQSGNSQESVTEQDSKDSTYSLSSTLTLSKADYEKHKVYACEVTHQGLSSPVTKSFNRGEC
VH: EVQLVESGGGLVQPGGSLRLSCAASGFTFNTYAMNWVRQAPGKGLEWVARIRSKYNNYATYYAASVKGRFTISRDDSKNSLYLQMNSLKTEDTAVYYCARHGNFGNSYVSWFAYWGQGTLVTVSS
VL: QTVVTQEPSLTVSPGGTVTLTCRSSTGAVTTSNYANWVQQKPGQAPRGLIGGTNKRAPGTPARFSGSLLGGKAALTLSGVQPEDEAEYYCALWYSNLWVFGGGTKLTVL
- cytotoxicity EC50, caspase 3/7 assay, NCI-H1975 cells with pan T cells [3]: 0.018 nM

B3: IC3B34 (bispecific antibody, human IgG4 S228P, kappa, F234A L235A)
heavy: not shown
light: B2 light
VH: QVQLQQSGPRLVRPSQTLSLTCAISGDSVFNNNAAWSWIRQSPSRGLEWLGRTYYRSKWLYDYAVSVKSRITVNPDTSRNQFTLQLNSVTPEDTALYYCARGYSSSFDYWGQGTLVTVSS
VL: QSALTQPASVSGSPGQSITISCTGTSSNIGTYKFVSWYQQHPDKAPKVLLYEVSKRPSGVSSRFSGSKSGNTASLTISGLQAEDQADYHCVSYAGSGTLLFGGGTKLTVL
- cytotoxicity EC50, caspase 3/7 assay, NCI-H1975 cells with pan T cells [3]: 0.057 nM

B4: IC3B34 (IAPB57×CD3B376) IL1RAP×CD3 bispecific antibody (bispecific antibody, human IgG4 S228P, kappa, lambda, F234A L235A)
heavy 1: not shown
light 1: B2 light
heavy 2: QVQLQQSGPRLVRPSQTLSLTCAISGDSVFNNNAAWSWIRQSPSRGLEWLGRTYYRSKWLYDYAVSVKSRITVNPDTSRNQFTLQLNSVTPEDTALYYCARGYSSSFDYWGQGTLVTVSSASTKGPSVFPLAPCSRSTSESTAALGCLVKDYFPEPVTVSWNSGALTSGVHTFPAVLQSSGLYSLSSVVTVPSSSLGTKTYTCNVDHKPSNTKVDKRVESKYGPPCPPCPAPEAAGGPSVFLFPPKPKDTLMISRTPEVTCVVVDVSQEDPEVQFNWYVDGVEVHNAKTKPREEQFNSTYRVVSVLTVLHQDWLNGKEYKCKVSNKGLPSSIEKTISKAKGQPREPQVYTLPPSQEEMTKNQVSLTCLVKGFYPSDIAVEWESNGQPENNYKTTPPVLDSDGSFLLYSKLTVDKSRWQEGNVFSCSVMHEALHNHYTQKSLSLSLGK
light 2: QSALTQPASVSGSPGQSITISCTGTSSNIGTYKFVSWYQQHPDKAPKVLLYEVSKRPSGVSSRFSGSKSGNTASLTISGLQAEDQADYHCVSYAGSGTLLFGGGTKLTVLGQPKAAPSVTLFPPSSEELQANKATLVCLISDFYPGAVTVAWKADSSPVKAGVETTTPSKQSNNKYAASSYLSLTPEQWKSHRSYSCQVTHEGSTVEKTVAPTECS
- T-cell Activation EC50 (nM) (CD25), LAMA-84 cell line, whole blood assay, 48 h [4]: 7.83 nM
- Cytotoxicity EC50 (nM), LAMA-84 cell line, whole blood T cell cytotoxicity assay, 48 h [5]: 2.76 nM

B5: C3CB88 (bispecific antibody, IgG4, V domains shown)
VH 1: EVQLVESGGGLVQPGRSLRLSCAASGFTFDDYAMHWVRQAPGKGLEWVSGIGWSGGSIVYADSVKGRFTISRDNAKNSLYLQMNSLRAEDTALYYCAKDSPYGDFFDYWGQGTLVTVSS
VL 1: DIVMTQSPDSLAVSLGERATINCKSSQTVFYSSNNKNYLAWYQQKPGQPPKLLISWASTRKSGVPDRFSGSGSGTDFTLTVSSLQAEDVAVYYCQHYYSTPYTFGQGTKLEIK
VH 2: B2 VH
VL 2: B2 VL
- T cell activation EC50 (Cyno CD3e): 0.02 nM
- CD33^+ CD14^+ Killing EC50 (Cyno CD33 full length): 0.89 nM
- CD33^+ CD14^+ Killing EC50 (Human CD33 full length [6]): 0.506 nM
- MOLM13 Killing EC50 (Human CD33 full length [6]): 0.671 nM
- Primary AML Cell Killing EC50 (Human CD33 full length [7]): 0.672 nM

B6: IC3B19 (IAPB57×CD3B219) IL1RAP×CD3 bispecific antibody (bispecific antibody, human IgG4 S228P, kappa, F234A L235A)
heavy: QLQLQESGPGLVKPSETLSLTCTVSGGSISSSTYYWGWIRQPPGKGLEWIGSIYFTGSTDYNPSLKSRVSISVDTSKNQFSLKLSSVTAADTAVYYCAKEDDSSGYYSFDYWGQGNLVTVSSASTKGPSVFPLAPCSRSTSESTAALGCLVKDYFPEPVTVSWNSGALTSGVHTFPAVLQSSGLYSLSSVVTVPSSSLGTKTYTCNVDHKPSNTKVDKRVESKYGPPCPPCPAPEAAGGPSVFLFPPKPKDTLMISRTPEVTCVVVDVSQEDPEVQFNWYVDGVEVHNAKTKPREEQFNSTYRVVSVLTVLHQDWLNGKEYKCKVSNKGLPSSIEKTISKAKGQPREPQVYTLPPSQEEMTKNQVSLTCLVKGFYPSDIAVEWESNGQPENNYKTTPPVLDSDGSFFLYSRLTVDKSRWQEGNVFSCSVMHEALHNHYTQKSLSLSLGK
light: B2 light
VH: B2 VH
VL: B2 VL
- T-cell Activation EC50 (nM) (CD25), LAMA-84 cell line, whole blood assay, 48 h [4]: 4.24 nM
- Cytotoxicity EC50 (nM), LAMA-84 cell line, whole blood T cell cytotoxicity assay, 48 h [5]: 2.1 nM

B7: C3CB189 (bispecific antibody, IgG4, V domains shown)
VH 1: B5 VH 1
VL 1: B5 VL 1
VH 2: B3 VH
VL 2: B3 VL
- T cell activation EC50 (Cyno CD3e): 0.02 nM
- CD33^+ CD14^+ Killing EC50 (Cyno CD33 full length): 3.6 nM
- CD33^+ CD14^+ Killing EC50 (Human CD33 full length [6]): 1.16 nM
- MOLM13 Killing EC50 (Human CD33 full length [6]): 0.168 nM
- Primary AML Cell Killing EC50 (Human CD33 full length [7]): 0.578 nM

B8: TMEB762 (antibody, human IgG4 S228P, kappa, F234A L235A, V domains shown)
VH: EVQLLESGGGLVQPGGSLRLSCAASGFTFSSYSMSWVRQAPGKGLEWVSVISGSGGFTDYADSVKGRFTISRDNSKNTLYLQMNSLRAEDTAVYYCARMPLNSPHDYWGQGTLVTVSS
VL: DIQMTQSPSSLSASVGDRVTITCRASQGIRNDLGWYQQKPGKAPKLLIYAASSLQSGVPSRFSGSGSGTDFTLTISSLQPEDFATYYCLQDYNYPLTFGGGTKVEIKR
notes: IgG4 PAA; also called TMEH459/DL3L129
- binding result (Rh-integrin a4b7): no binding (tested: response unit ≥100 predicts high risks)
- binding result (Rh-CD19): no binding (tested: response unit ≥100 predicts high risks)

B9: PSMM87 (Fab, V domains shown)
VH: QVQLVQSGAEVKKPGSSVKVSCKASGGTFKSYDISWVRQAPGQGLEWMGGIIPIEGTANYAQKFQGRVTITADESTSTAYMELSSLRSEDTAVYYCARDYPAGYGFDYWGQGTLVTVSS
VL: not shown
notes: Mammalian Fab supernatant; also called PSMB86
- EC50 (read off the curve) [1]: ~0.2 µg/mL
- EC50 (read off the curve) [8]: ~0.4 µg/mL
